From paper PMC5645793 (Journal of toxicology and environmental health. Part A, 2009) come the findings set out here.

Series [1] addresses T1, human lens ALDH1A1 (Homo sapiens, UniProt P00352).
T1 sequence (P00352 1-501): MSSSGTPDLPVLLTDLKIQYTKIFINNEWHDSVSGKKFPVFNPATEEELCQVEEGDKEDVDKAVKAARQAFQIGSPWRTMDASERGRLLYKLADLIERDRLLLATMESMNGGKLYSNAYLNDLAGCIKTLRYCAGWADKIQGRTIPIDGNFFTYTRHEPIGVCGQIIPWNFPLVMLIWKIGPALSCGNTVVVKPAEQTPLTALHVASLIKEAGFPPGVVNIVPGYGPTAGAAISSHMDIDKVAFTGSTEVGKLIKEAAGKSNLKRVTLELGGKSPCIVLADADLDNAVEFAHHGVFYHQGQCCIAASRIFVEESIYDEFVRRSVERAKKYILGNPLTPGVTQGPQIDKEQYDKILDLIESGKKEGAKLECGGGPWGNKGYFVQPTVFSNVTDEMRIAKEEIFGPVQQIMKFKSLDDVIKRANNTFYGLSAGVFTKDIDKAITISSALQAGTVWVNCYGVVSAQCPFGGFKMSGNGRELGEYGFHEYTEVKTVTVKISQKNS
The class given is biochemical.

Series [2] concerns the target T1, human lens ALDH1A1. The class given is biochemical. This is another data set of the same source.
Substrate in series [3]: NC(=O)c1ccc[n+]([C@@H]2O[C@H](COP(=O)([O-])OP(=O)(O)OC[C@H]3O[C@@H](n4cnc5c(N)ncnc54)[C@H](O)[C@@H]3O)[C@@H](O)[C@H]2O)c1
Description: purified protein. The class given is biochemical, Homo sapiens. Particulars: may interfere with NO binding to catalytic site; varied: cofactor.

Substrate in series [4]: O=CCC=O
Description: purified protein. The class given is biochemical, Homo sapiens. Particulars: NAD+ probably both the substrates fit the active site well.

Substrate in series [5]: O=Cc1ccccc1
The series can be described thus: purified protein. Format: biochemical, Homo sapiens. The note with it: NAD+.

Substrate in series [6]: CCC=O
The series can be described thus: purified protein. The class given is biochemical, Homo sapiens. Particulars: NAD+.

Substrate in series [7]: CCCCCC(O)C=CC=O
Description: purified protein. The note with it: NAD+ probably both the substrates fit the active site well.

For the molecule `CC/C(=C(/CC)c1ccc(O)cc1)c1ccc(O)cc1` [diethylstilbestrol], the EC50 – broadly, the concentration that produces a half-maximal response – on human lens ALDH1A1 [1] is 11.3 µM.
On to `CC(C)=CCCC(C)=CC=O` [citral, 3,7-dimethyl-2,6-octadienal], for which, on human lens ALDH1A1 [2], it took 55 µM to reach half-maximal inhibition (IC50).

B1: human lens ALDH1A1 (Homo sapiens) (protein)
chain: MSSSGTPDLPVLLTDLKIQYTKIFINNEWHDSVSGKKFPVFNPATEEELCQVEEGDKEDVDKAVKAARQAFQIGSPWRTMDASERGRLLYKLADLIERDRLLLATMESMNGGKLYSNAYLNDLAGCIKTLRYCAGWADKIQGRTIPIDGNFFTYTRHEPIGVCGQIIPWNFPLVMLIWKIGPALSCGNTVVVKPAEQTPLTALHVASLIKEAGFPPGVVNIVPGYGPTAGAAISSHMDIDKVAFTGSTEVGKLIKEAAGKSNLKRVTLELGGKSPCIVLADADLDNAVEFAHHGVFYHQGQCCIAASRIFVEESIYDEFVRRSVERAKKYILGNPLTPGVTQGPQIDKEQYDKILDLIESGKKEGAKLECGGGPWGNKGYFVQPTVFSNVTDEMRIAKEEIFGPVQQIMKFKSLDDVIKRANNTFYGLSAGVFTKDIDKAITISSALQAGTVWVNCYGVVSAQCPFGGFKMSGNGRELGEYGFHEYTEVKTVTVKISQKNS
Regarding B1, the Km – broadly, the concentration of substrate that gives half-maximal velocity – is 59.4 ± 2.4 µM in the series “purified protein [3]”; 3.5 ± 0.6 µM in “purified protein [4]”; 143.2 ± 6.4 µM in the series “purified protein [5]”; 121.4 ± 6.7 µM in “purified protein [6]”; 4.8 ± 0.12 µM in the series “purified protein [7]”. The Vmax (commonly the top rate of the reaction or transport when substrate is in excess) in the series “purified protein [3]” amounted to 0.15 µmol/min/mg; in the series “purified protein [4]” it was 0.382 µmol/min/mg; in “purified protein [5]” it was 0.75 µmol/min/mg; in the series “purified protein [6]”, 0.445 µmol/min/mg; in the series “purified protein [7]”, 0.135 ± 0.0152 µmol/min/mg.
